From US11278600B2, “Human alpha-galactosidase variants” (Codexis, Inc., priority 2014, dated 2022)
Where a chain is given by its changes, count along the chain named.

B1: 9 (protein)
chain: LDNGLARTPTMGWLHWERFMCNLDCQEEPDSCISEKLFMEMADLMVSDGWKDAGYEYLCIDDCWMAPQRDSEGRLQADPQRFPHGIRQLANYVHSKGLKLGIYADVGNKTCAGFPGSFGYYDIDAQTFADWGVDLLKFDGCYCDSLENLADGYKHMSLALNRTGRSIVYSCEWPLYMWPFQKPNYTEIRQYCNHWRNFADIDDSWKSIKSILDWTSFNQERIVDVAGPGGWNDPDMLVIGNFGLSWNQQVTQMALWAIMAAPLFMSNDLRHISPQAKALLQDKDVIAINQDPLGKQGYQLRKGDNFEVWERPLSGLAWAVAMINRQEIGGPRSYTIAVASLGKGVACNPACFITQLLPVKRKLGFYEWTSRLKSHVNPTGTVLLQLENTMQMSLKDLL
modifications: Synthetic Polypeptide sequence of Variant No. 9 of mature Human GLA
B2: 10 (protein)
chain: B1 chain with D48E, I208V, N247D, K302Q, K373R, V376I
modifications: Synthetic Polypeptide sequence of Variant No. 10 of mature Human GLA
B3: 11 (protein)
chain: B1 chain with D48E, I208V, N247D, Q299R, K302Q
modifications: Synthetic Polypeptide sequence of Variant No. 11 of mature Human GLA
B4: 13 (protein)
chain: B1 chain with D48E, N247D, K302Q
modifications: Synthetic Polypeptide sequence of Variant No. 13 of mature Human GLA
B5: 14 (protein)
chain: B1 chain with D48E, K302Q
modifications: Synthetic Polypeptide sequence of Variant No. 14 of mature Human GLA
B6: 15 (protein)
chain: B1 chain with D43E, I208V, Q299R, V376I
modifications: Synthetic Polypeptide sequence of Variant No. 15 of mature Human GLA
B7: 12 (protein)
chain: B1 chain with D48E, I208V, Q299R, K302Q
modifications: Synthetic Polypeptide sequence of Variant No. 12 of mature Human GLA
B8: 16 (protein)
chain: LDNGLARTPTMGWLHWERFMCNLDCQEEPDSCISEKLFMEMAELMVSDGWKDAGYEYLCIDDCWMAPQRDSEGRLQADPQRFPHGIRQLANYVHSKGLKLGIYADVGNKTCAGFPGSFGYYDIDAQTFADWGVDLLKFDGCYCDSLENLADGYKHMSLALNRTGRSIVYSCEWPLYMWPFQKPNYTEIRQYCNHWRNFADIDDSWKSIKSILDWTSFNQERIVDVAGPGGWNDPDMLVIGNFGLSWNQQVTQMALWAIMAAPLFMSNDLRHISPQAKALLQDKDVIAINQDPLGKQGYQLRQGDNFEVWERPLSGLAWAVAMINRQEIGGPRSYTIAVASLGKGVACNPACFITQLLPVKRKLGFYEWTSRLKSHVNPTGTVLLQLENTMQMSLKDLLL
modifications: Synthetic Polypeptide sequence of Variant No. 16 of mature Human GLA
B9: 18 (protein)
chain: B8 chain with D48E, F217S, K373R, V376I
modifications: Synthetic Polypeptide sequence of Variant No. 18 of mature Human GLA
B10: 17 (protein)
chain: B8 chain with D48G, V376I
modifications: Synthetic Polypeptide sequence of Variant No. 17 of mature Human GLA
B11: 19 (protein)
chain: B8 chain with D48E, I208V, N247D, Q299R, Q302K
modifications: Synthetic Polypeptide sequence of Variant No. 19 of mature Human GLA

Key:
Type in all cases: biochemical
[1] = HTP-analysis of supernatants pretreated with acid (MUGal hydrolysis); conditions: challenge at pH 4.3; activity of the variant/activity of WT GLA (SEQ ID NO: 5); yeast supernatant
Method: (§1) Yeast (INVSc1) cells transformed with vectors expressing GLA and GLA variants using the lithium acetate method were selected on SD-Ura agar plates. After 72 h incubation at 30° C. colonies were placed into the wells of Axygen® 1.1 ml 96-well deep well plates filled with 200 μl/well SD-Ura broth (2 g/L SD-Ura, 6.8 g/L yeast nitrogen base without amino acids [Sigma Aldrich]), 3.06 g/L sodium dihydrogen phosphate, 0.804 g/L disodium hydrogen phosphate, pH 6.0 supplemented with 6% glucose. The cells were allowed to grow for 20-24 hours in a Kuhner shaker (250 rpm, 30° C., and 85% relative humidity). Overnight culture samples (20 μL) were transferred into Corning Costar® 96-well deep plates filled with 380 µL of SD-ura broth supplemented with 2% glucose. The plates were incubated for 66-84 h in a Kuhner shaker (250 rpm, 30° C., and 85% relative humidity). The cells were then pelleted (4000 rpm×20 min), and the supernatants isolated and stored at 4° C. prior to analysis.
GLA variants were challenged with acidic buffer to simulate the extreme pHs that the variants may encounter in lysosomes. First, 50 μL of yeast culture supernatant and 50 uL of McIlvaine buffer (pH 3.3-4.3) were added to the wells of a 96-well round bottom plate. The plates were sealed with a PlateLoc Thermal Microplate Sealer (Agilent) and incubated at 37° C. for 1-3 h. For the assay, 10-50 uL of acid-pH-challenged sample was mixed with 0-40 μL, of McIlvaine buffer pH 4.8, 25 μL, of 1 M citrate buffer pH 4.3 and 25 μL, of 4 mM MUGal in McIlvaine buffer pH 4.8. The reactions were mixed briefly and incubated at 37° C. for 30-180 minutes, prior to quenching with 100 μL, of 1 M sodium carbonate. Hydrolysis was analyzed using a SpectraMax® M2 microplate reader monitoring fluorescence (Ex. 355 nm, Em. 448 nm).

[2] = HTP-analysis of supernatants pretreated with base (MUGal hydrolysis); conditions: challenge at pH 7.0; activity of the variant/activity of WT GLA (SEQ ID NO: 5); yeast supernatant
Method: as §1
GLA variants were challenged with basic (neutral) buffer to simulate the pHs that the variants encounter in the blood following their administration to a patient. First, 50 μL of yeast culture supernatant and 50 uL of McIlvaine buffer (pH 7.0-8.2) or 200 mM sodium bicarbonate (pH 9.1-9.7) were added to the wells of a 96-well round bottom plate. The plates were sealed and incubated at 37° C. for 1-18 h. For the assay, 10-50 μL of basic-pH-challenged sample was mixed with 0-40 μL, of McIlvaine buffer pH 4.8, 25 μL, of 1 M citrate buffer pH 4.3 and 25 μL, of 4 mM MUGal in McIlvaine buffer pH 4.8. The reactions were mixed briefly and incubated at 37° C. for 30-180 minutes, prior to quenching with 100 μL, of 1 M sodium carbonate. Hydrolysis was analyzed using a SpectraMax® M2 microplate reader monitoring fluorescence (Ex. 355 nm, Em. 448 nm).

[3] = HTP-analysis of yeast culture supernatants, no challenge (MUGal hydrolysis); conditions: activity of the variant/activity of WT GLA (SEQ ID NO: 5), yeast supernatant
Method: as §1
GLA variant activity was determined by measuring the hydrolysis of 4-methylumbelliferyl α-D-galactopyranoside (MUGal). For this assay, 5-50 μL, of yeast culture supernatant produced as described above, was mixed with 0-45 μL, of McIlvaine Buffer (McIlvaine, J. Biol. Chem., 49:183-186 [1921]), pH 4.8 and 50 μL of 2 mM MUGal in 50 mM citrate, 200 mM KCl, pH 4.6 in a 96-well, black, opaque bottom plate. The reactions were mixed briefly and incubated at 37° C. for 30-180 minutes, prior to quenching with 100 μL, of 1 M sodium carbonate. Hydrolysis was analyzed using a SpectraMax® M2 microplate reader monitoring fluorescence (Ex. 355 nm, Em. 448 nm).

Row | Molecule | Relative Activity of GLA Variants After Challenge at pH 4.3 [1] | Relative Activity of GLA Variants After Challenge at pH 7.0 [2] | Relative Activity of GLA Variants After No Challenge (NC) [3]
1 | B1 | +++ (+++ = >2.5 relative activity over WT GLA (SEQ ID NO: 5)) | + (+ = 0.5 to 1.5 relative activity over WT GLA (SEQ ID NO: 5)) | + (+ = 0.5 to 1.5 relative activity over WT GLA (SEQ ID NO: 5))
2 | B2 | +++ (+++ = >2.5 relative activity over WT GLA (SEQ ID NO: 5)) | ++ (++ = >1.5 to 2.5 relative activity over WT GLA (SEQ ID NO: 5)) | ++ (++ = >1.5 to 2.5 relative activity over WT GLA (SEQ ID NO: 5))
3 | B3 | +++ (+++ = >2.5 relative activity over WT GLA (SEQ ID NO: 5)) | ++ (++ = >1.5 to 2.5 relative activity over WT GLA (SEQ ID NO: 5)) | + (+ = 0.5 to 1.5 relative activity over WT GLA (SEQ ID NO: 5))
4 | B4 | +++ (+++ = >2.5 relative activity over WT GLA (SEQ ID NO: 5)) | ++ (++ = >1.5 to 2.5 relative activity over WT GLA (SEQ ID NO: 5)) | ++ (++ = >1.5 to 2.5 relative activity over WT GLA (SEQ ID NO: 5))
5 | B5 | +++ (+++ = >2.5 relative activity over WT GLA (SEQ ID NO: 5)) | ++ (++ = >1.5 to 2.5 relative activity over WT GLA (SEQ ID NO: 5)) | + (+ = 0.5 to 1.5 relative activity over WT GLA (SEQ ID NO: 5))
6 | B6 | + (+ = 0.5 to 1.5 relative activity over WT GLA (SEQ ID NO: 5)) | + (+ = 0.5 to 1.5 relative activity over WT GLA (SEQ ID NO: 5)) | + (+ = 0.5 to 1.5 relative activity over WT GLA (SEQ ID NO: 5))
7 | B7 | ++ (++ = >1.5 to 2.5 relative activity over WT GLA (SEQ ID NO: 5)) | + (+ = 0.5 to 1.5 relative activity over WT GLA (SEQ ID NO: 5)) | + (+ = 0.5 to 1.5 relative activity over WT GLA (SEQ ID NO: 5))
8 | B8 | ++ (++ = >1.5 to 2.5 relative activity over WT GLA (SEQ ID NO: 5)) | + (+ = 0.5 to 1.5 relative activity over WT GLA (SEQ ID NO: 5)) | + (+ = 0.5 to 1.5 relative activity over WT GLA (SEQ ID NO: 5))
9 | B9 | + (+ = 0.5 to 1.5 relative activity over WT GLA (SEQ ID NO: 5)) | ++ (++ = >1.5 to 2.5 relative activity over WT GLA (SEQ ID NO: 5)) | + (+ = 0.5 to 1.5 relative activity over WT GLA (SEQ ID NO: 5))
10 | B10 | + (+ = 0.5 to 1.5 relative activity over WT GLA (SEQ ID NO: 5)) | + (+ = 0.5 to 1.5 relative activity over WT GLA (SEQ ID NO: 5)) | + (+ = 0.5 to 1.5 relative activity over WT GLA (SEQ ID NO: 5))
11 | B11 | ++ (++ = >1.5 to 2.5 relative activity over WT GLA (SEQ ID NO: 5)) | + (+ = 0.5 to 1.5 relative activity over WT GLA (SEQ ID NO: 5)) | + (+ = 0.5 to 1.5 relative activity over WT GLA (SEQ ID NO: 5))
